Test results from patent publication US20130236458A1 (AbbVie / Abbott, published 2013).
Where a chain is given by its changes, count along the chain named.

Tests used:
Recombinant Human IL-13 [1] = biological target: T1, Recombinant Human IL-13 (human, UniProt P35225 35-146, limits assumed); assay: SPR (Biacore)
T1 construct: bought reagent
Description: (§1) The BIACORE assay (Biacore, Inc, Piscataway, N.J.) determined the affinity of antibodies or DVD-Ig with kinetic measurements of on-rate and off-rate constants. Binding of antibodies or DVD-Ig proteins to a target antigen (for example, a purified recombinant target antigen) was determined by surface plasmon resonance-based measurements with a Biacore®1000 or 3000 instrument (Biacore® AB, Uppsala, Sweden) using running HBS-EP (10 mM HEPES [pH 7.4], 150 mM NaCl, 3 mM EDTA, and 0.005% surfactant P20) at 25° C. All chemicals were obtained from Biacore® AB (Uppsala, Sweden) or otherwise from a different source as described in the text. For example, approximately 5000 RU of goat anti-mouse IgG, (Fcγ), fragment specific polyclonal antibody (Pierce Biotechnology Inc, Rockford, Ill.) diluted in 10 mM sodium acetate (pH 4.5) was directly immobilized across a CM5 research grade biosensor chip using a standard amine coupling kit according to manufacturer's instructions and procedures at 25 μg/ml. Unreacted moieties on the biosensor surface were blocked with ethanolamine. Modified carboxymethyl dextran surface in flowcell 2 and 4 was used as a reaction surface. Unmodified carboxymethyl dextran without goat anti-mouse IgG in flow cell 1 and 3 was used as the reference surface. For kinetic analysis, rate equations derived from the 1:1 Langmuir binding model were fitted simultaneously to association and dissociation phases of all eight injections (using global fit analysis) with the use of Biaevaluation 4.0.1 software. Purified antibodies or DVD-Ig proteins were diluted in HEPES-buffered saline for capture across goat anti-mouse IgG specific reaction surfaces. Antibodies or DVD-Ig proteins to be captured as a ligand (25 μg/ml) were injected over reaction matrices at a flow rate of 5 μl/minute. The association and dissociation rate constants, kₒₙ (M⁻¹s⁻¹) and koff (s⁻¹) were determined under a continuous flow rate of 25 μl/minute. Rate constants were derived by making kinetic binding measurements at different antigen concentrations ranging from 10-200 nM. The equilibrium dissociation constant (M) of the reaction between antibodies or DVD-Ig proteins and the target antigen was then calculated from the kinetic rate constants by the following formula: KD=koff/kₒₙ. Binding was recorded as a function of time and kinetic rate constants were calculated.

Recombinant Human IL-13 [2] = biological target: T1, Recombinant Human IL-13; assay: cell-based or functional assay
Recombinant Human IL-17 [3] = biological target: T2, Recombinant Human IL-17 (human, UniProt Q16552 20-155, limits assumed); assay: cell-based or functional assay
T2 sequence (looked up): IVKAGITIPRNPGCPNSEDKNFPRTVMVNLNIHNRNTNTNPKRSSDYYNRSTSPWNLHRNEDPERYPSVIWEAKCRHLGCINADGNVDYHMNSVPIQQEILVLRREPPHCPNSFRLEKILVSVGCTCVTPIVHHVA

Recombinant Human IL-17 [4] = biological target: T2, Recombinant Human IL-17; assay: SPR (Biacore)
Description: as §1

T1 sequence (P35225 35-146 limits assumed): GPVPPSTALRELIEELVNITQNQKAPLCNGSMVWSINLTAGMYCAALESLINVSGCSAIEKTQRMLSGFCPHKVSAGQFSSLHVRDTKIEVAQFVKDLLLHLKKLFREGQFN

B1: AB398 (antibody, V domains shown)
VH: EVQLVQSGAEVKKPGASVKVSCKASGYTFTTYGVSWVRQAPGQGLEWMGEIYPGNYNTYYNEKFRGRVTMTTDTSTSTAYMELRSLRSDDTAVYYCARWRTSYFSDYGYFDYWGQGTTVTVSS
VL: DVVMTQSPLSLPVTLGQPASISCRSSQSLVHSHGNTYLHWYQQRPGQSPRLLIYTVSNRFSGVPDRFSGSGSGTDFTLKISRVEAEDVGVYYCSQSTHVPYTFGGGTKVEIKR
notes: parent antibody; also called AB398VH
Recombinant Human IL-13 [1]
  Kd: 0.045 nM
  koff: 2.8e-05 s⁻¹
  kon: 630000 M⁻¹ s⁻¹
Recombinant Human IL-13 [2]
  IL13 Neutralization Assay IC50 (TARC, A549 cells): 0.082 nM

B2: DVD2169 (bispecific antibody)
VH: EVQLVQSGAEVKKPGSSVKVSCKASGYTFTDYEIHWVRQAPGQGLEWMGVNDPESGGTFYNQKFDGRVTLTADESTSTAYMELSSLRSEDTAVYYCTRYSKWDSFDGMDYWGQGTTVTVSSASTKGPEVQLVQSGAEVKKPGASVKVSCKASGYTFTTYGVSWVRQAPGQGLEWMGEIYPGNYNTYYNEKFRGRVTMTTDTSTSTAYMELRSLRSDDTAVYYCARWRTSYFSDYGYFDYWGQGTTVTVSS
VL: DIQMTQSPSSLSASVGDRVTITCRASSGIISYIDWFQQKPGKAPKRLIYATFDLASGVPSRFSGSGSGTDYTLTISSLQPEDFATYYCRQVGSYPETFGQGTKLEIKRTVAAPSVFIFPPDVVMTQSPLSLPVTLGQPASISCRSSQSLVHSHGNTYLHWYQQRPGQSPRLLIYTVSNRFSGVPDRFSGSGSGTDFTLKISRVEAEDVGVYYCSQSTHVPYTFGGGTKVEIKR
Recombinant Human IL-13 [2]
  C-Terminal VD IL13 Neutralization Assay IC50: 0.309 nM
Recombinant Human IL-17 [3]
  N-Terminal VD IL17 Neutralization Assay IC50: 0.0021 nM

B3: DVD2162 (bispecific antibody)
VH: EVTLRESGPGLVKPTQTLTLTCTLYGFSLSTSDMGVDWIRQPPGKGLEWLAHIWWDDVKRYNPALKSRLTISKDTSKNQVVLKLTSVDPVDTATYYCARTVSSGYIYYAMDYWGQGTLVTVSSASTKGPEVQLVQSGAEVKKPGESVKISCKASGGSFRSYGISWVRQAPGQGLEWMGGITHFFGITDYAQKFQGRVTITADESTTTAYMELSGLTSDDTAVYYCAREPNDFWNGYYDTHDFDSWGQGTTVTVSS
VL: DIQMTQSPSSLSASVGDRVTISCRASQDIRNYLNWYQQKPGKAPKLLIFYTSKLHSGVPSRFSGSGSGTDYTLTISSLQPEDIATYYCQQGLTPPLTFGGGTKVEIKRTVAAPSVFIFPPEIVLTQSPDFQSVTPKEKVTITCRASQNIGSELHWYQQKPDQSPKLLIKYASHSISGVPSRFSGSGSGTDFTLTINGLEAEDAATYYCHQSDTLPHTFGQGTKVDIKR
Recombinant Human IL-13 [2]
  N-Terminal VD IL13 Neutralization Assay IC50: 0.126 nM
Recombinant Human IL-17 [3]
  C-Terminal VD IL17 Neutralization Assay IC50: 0.0213 nM

B4: DVD2163 (bispecific antibody)
VH: EVQLVQSGAEVKKPGESVKISCKASGGSFRSYGISWVRQAPGQGLEWMGGITHFFGITDYAQKFQGRVTITADESTTTAYMELSGLTSDDTAVYYCAREPNDFWNGYYDTHDFDSWGQGTTVTVSSASTKGPEVTLRESGPGLVKPTQTLTLTCTLYGFSLSTSDMGVDWIRQPPGKGLEWLAHIWWDDVKRYNPALKSRLTISKDTSKNQVVLKLTSVDPVDTATYYCARTVSSGYIYYAMDYWGQGTLVTVSS
VL: EIVLTQSPDFQSVTPKEKVTITCRASQNIGSELHWYQQKPDQSPKLLIKYASHSISGVPSRFSGSGSGTDFTLTINGLEAEDAATYYCHQSDTLPHTFGQGTKVDIKRTVAAPSVFIFPPDIQMTQSPSSLSASVGDRVTISCRASQDIRNYLNWYQQKPGKAPKLLIFYTSKLHSGVPSRFSGSGSGTDYTLTISSLQPEDIATYYCQQGLTPPLTFGGGTKVEIKR
Recombinant Human IL-13 [2]
  C-Terminal VD IL13 Neutralization Assay IC50: 0.195 nM
Recombinant Human IL-17 [3]
  N-Terminal VD IL17 Neutralization Assay IC50: 0.0151 nM

B5: AB399 (antibody, V domains shown)
VH: EVQLVQSGAEVKKPGASVKVSCKASGYTFTSYWMHWVRQAPGQGLEWIGNINPKGGSNIYNEKFQGRVTMTRDTSISTAYMELSRLRSDDTAVYYCARLDYFGDSFDLWGQGTTVTVSS
VL: DIQMTQSPSSLSASVGDRVTITCRASQGIRNYLNWYQQKPGKAPKLLIYYASNLEVGVPSRFSGSGSGTDYTLTISSLQPEDFATYYCQQDNRFPYTFGGGTKVEIKR
notes: parent antibody; also called AB399VH
Recombinant Human IL-13 [1]
  Kd: 0.019 nM
  koff: 6.4e-05 s⁻¹
  kon: 3.4e+06 M⁻¹ s⁻¹
Recombinant Human IL-13 [2]
  IL13 Neutralization Assay IC50 (TARC, A549 cells): 0.043 nM

B6: AB273 (antibody, V domains shown)
VH: EVQLVQSGAEVKKPGSSVKVSCKASGYTFTDYEIHWVRQAPGQGLEWMGVNDPESGGTFYNQKFDGRVTLTADESTSTAYMELSSLRSEDTAVYYCTRYSKWDSFDGMDYWGQGTTVTVSS
VL: DIQMTQSPSSLSASVGDRVTITCRASSGIISYIDWFQQKPGKAPKRLIYATFDLASGVPSRFSGSGSGTDYTLTISSLQPEDFATYYCRQVGSYPETFGQGTKLEIKR
notes: parent antibody; also called AB273VH
Recombinant Human IL-17 [4]
  Kd: < 0.0005 nM
  koff: < 1e-06 s⁻¹
  kon: 2e+06 M⁻¹ s⁻¹
Recombinant Human IL-17 [3]
  IL17 Neutralization Assay IC50 (IL-6, HS27 cells): 0.0198 nM

B7: DVD2154 (bispecific antibody)
VH: EVTLRESGPGLVKPTQTLTLTCTLYGFSLSTSDMGVDWIRQPPGKGLEWLAHIWWDDVKRYNPALKSRLTISKDTSKNQVVLKLTSVDPVDTATYYCARTVSSGYIYYAMDYWGQGTLVTVSSASTKGPEVQLVQSGAEVKKPGSSVKVSCKASGGSFGGYGIGWVRQAPGQGLEWMGGITPFFGFADYAQKFQGRVTITADESTTTAYMELSGLTSDDTAVYYCARDPNEFWNGYYSTHDFDSWGQGTTVTVSS
VL: DIQMTQSPSSLSASVGDRVTISCRASQDIRNYLNWYQQKPGKAPKLLIFYTSKLHSGVPSRFSGSGSGTDYTLTISSLQPEDIATYYCQQGLTPPLTFGGGTKVEIKRTVAAPEIVLTQSPDFQSVTPKEKVTITCRASQDIGSELHWYQQKPDQPPKLLIKYASHSTSGVPSRFSGSGSGTDFTLTINGLEAEDAGTYYCHQTDSLPYTFGPGTKVDIKR
Recombinant Human IL-13 [2]
  N-Terminal VD IL13 Neutralization Assay IC50: 0.43 nM
Recombinant Human IL-17 [3]
  C-Terminal VD IL17 Neutralization Assay IC50: 0.351 nM

B8: DVD2156 (bispecific antibody)
VH: B7 VH
VL: B3 VL with N148D, S163P, I175T, A204G, S211T, T213S, H216Y, Q220P
Recombinant Human IL-13 [2]
  N-Terminal VD IL13 Neutralization Assay IC50: 0.129 nM
Recombinant Human IL-17 [3]
  C-Terminal VD IL17 Neutralization Assay IC50: 0.0155 nM

B9: DVD2160 (bispecific antibody)
VH: B3 VH
VL: B7 VL with D141N, P156S, T168I, G197A, T204S, S206T, Y209H, P213Q
Recombinant Human IL-13 [2]
  N-Terminal VD IL13 Neutralization Assay IC50: 0.178 nM
Recombinant Human IL-17 [3]
  C-Terminal VD IL17 Neutralization Assay IC50: 0.703 nM

B10: AB397 (antibody, V domains shown)
VH: EVTLRESGPGLVKPTQTLTLTCTLYGFSLSTSDMGVDWIRQPPGKGLEWLAHIWWDDVKRYNPALKSRLTISKDTSKNQVVLKLTSVDPVDTATYYCARTVSSGYIYYAMDYWGQGTLVTVSS
VL: DIQMTQSPSSLSASVGDRVTISCRASQDIRNYLNWYQQKPGKAPKLLIFYTSKLHSGVPSRFSGSGSGTDYTLTISSLQPEDIATYYCQQGLTPPLTFGGGTKVEIKR
notes: parent antibody; also called AB397VH
Recombinant Human IL-13 [1]
  Kd: 0.13 nM
  koff: 0.00012 s⁻¹
  kon: 920000 M⁻¹ s⁻¹
Recombinant Human IL-13 [2]
  IL13 Neutralization Assay IC50 (TARC, A549 cells): 0.033 nM

B11: AB274 (antibody, V domains shown)
VH: EVQLVQSGAEVKKPGSSVKVSCKASGGSFGGYGIGWVRQAPGQGLEWMGGITPFFGFADYAQKFQGRVTITADESTTTAYMELSGLTSDDTAVYYCARDPNEFWNGYYSTHDFDSWGQGTTVTVSS
VL: EIVLTQSPDFQSVTPKEKVTITCRASQDIGSELHWYQQKPDQPPKLLIKYASHSTSGVPSRFSGSGSGTDFTLTINGLEAEDAGTYYCHQTDSLPYTFGPGTKVDIKR
notes: parent antibody; also called AB274VH
Recombinant Human IL-17 [4]
  Kd: 0.0074 nM
  koff: 8.2e-06 s⁻¹
  kon: 1.1e+06 M⁻¹ s⁻¹
Recombinant Human IL-17 [3]
  IL17 Neutralization Assay IC50 (IL-6, HS27 cells): 0.003 nM

B12: AB275 (antibody, V domains shown)
VH: EVQLVQSGAEVKKPGESVKISCKASGGSFRSYGISWVRQAPGQGLEWMGGITHFFGITDYAQKFQGRVTITADESTTTAYMELSGLTSDDTAVYYCAREPNDFWNGYYDTHDFDSWGQGTTVTVSS
VL: B11 VL with D28N, P43S, T55I, G84A, T91S, S93T, Y96H, P100Q
notes: parent antibody; also called AB275VH
Recombinant Human IL-17 [4]
  Kd: 0.034 nM
  koff: 6.5e-05 s⁻¹
  kon: 1.9e+06 M⁻¹ s⁻¹
Recombinant Human IL-17 [3]
  IL17 Neutralization Assay IC50 (IL-6, HS27 cells): 0.0052 nM
